Results as given in patent US20250270341A1 (Alector, published 2025).
Changes are numbered by the printed parent chain.

T1: huCD98hc ECD Avi-His (human, UniProt P08195 105-529)
T1 construct: biotinylated on the Avi tag where captured on streptavidin; also called Human CD98-AVI-His; Human CD98hc-AVI-His
T1 sequence: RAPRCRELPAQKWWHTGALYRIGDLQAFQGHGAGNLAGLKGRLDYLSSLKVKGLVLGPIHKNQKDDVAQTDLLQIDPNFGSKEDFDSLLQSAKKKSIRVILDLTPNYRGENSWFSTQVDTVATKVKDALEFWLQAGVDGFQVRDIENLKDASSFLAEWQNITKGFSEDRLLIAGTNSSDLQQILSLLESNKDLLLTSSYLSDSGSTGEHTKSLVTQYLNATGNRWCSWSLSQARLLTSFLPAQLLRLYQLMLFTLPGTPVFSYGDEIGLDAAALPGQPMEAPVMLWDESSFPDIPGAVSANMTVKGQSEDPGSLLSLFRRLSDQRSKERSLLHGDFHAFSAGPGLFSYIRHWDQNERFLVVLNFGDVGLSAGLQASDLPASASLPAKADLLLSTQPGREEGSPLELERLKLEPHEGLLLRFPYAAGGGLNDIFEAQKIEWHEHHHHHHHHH

T2: Cyno CD98hc ECD Avi-His (cynomolgus macaque, UniProt P08195 105-529 (human entry))
T2 construct: biotinylated on the Avi tag where captured on streptavidin; also called Cyno CD98-AVI-His; Cyno CD98hc-AVI-His
T2 chain: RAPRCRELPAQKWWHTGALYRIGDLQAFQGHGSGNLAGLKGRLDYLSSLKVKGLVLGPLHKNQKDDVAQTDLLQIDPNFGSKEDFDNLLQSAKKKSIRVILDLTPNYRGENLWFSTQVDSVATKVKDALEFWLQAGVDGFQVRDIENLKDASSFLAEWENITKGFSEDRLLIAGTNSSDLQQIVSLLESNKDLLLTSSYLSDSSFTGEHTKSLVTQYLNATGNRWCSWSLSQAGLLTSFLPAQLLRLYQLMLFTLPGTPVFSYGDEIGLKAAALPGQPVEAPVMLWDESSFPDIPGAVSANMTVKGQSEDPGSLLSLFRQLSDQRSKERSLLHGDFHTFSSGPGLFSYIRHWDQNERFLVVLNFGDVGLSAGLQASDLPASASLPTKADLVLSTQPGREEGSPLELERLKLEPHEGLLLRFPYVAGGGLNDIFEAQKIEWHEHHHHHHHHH

B1: CD98hc.04.064.1d (humanized, 2+1 format) (bispecific antibody)
scFv: QVQLVQSGAEVKKPGASVKVSCKASGYTFTSYWMNWVRQAPGQGLEWMGIIDPSDSETSYAQKFQGRVTMTVDKSTSTVYMELSSLRSEDTAVYYCARASYGKGYFDYWGQGTLVTVSSGGSEGKSSGSGSESKSTGGSDIVMTQSPDSLAVSLGERATINCKSSQSLLNNINQKNYLAWYQQKPGQPPKLLIYFASTRESGVPDRFSGSGSGTDFTLTISSLQAEDVAVYYCQQHYSSPFTFGGGTKVEIK
notes: tested as 2+1 bispecific (scFv on an IgG)
B2: CD98hc.04.064.1e (humanized, 2+1 format) (bispecific antibody)
scFv: B1 scFv with N35H, S59H
notes: as for B1
B3: CD98hc.04.064.4d (humanized, 2+1 format) (bispecific antibody)
scFv: QVQLVQSGAEVKKPGASVKVSCKASGYTFTSYWMHWVRQAPGQGLEWMGIIDPSDSETSYAQKFQGRVTMTRDTSTSTVYMELSSLRSEDTAVYYCARASYGKGYFDYWGQGTLVTVSSGGSEGKSSGSGSESKSTGGSDIQMTQSPSSLSASVGDRVTITCRASQSLLNNINQKNYLAWYQQKPGKAPKLLIYFASSLQSGVPSRFSGSGSGTDFTLTISSLQPEDFATYYCQQHYSSPFTFGGGTKVEIK
notes: as for B1
B4: CD98hc.04.064.4a (humanized, 2+1 format) (bispecific antibody)
scFv: B1 scFv with S59N, M70S, T76I, V79A, S85R, E89D, A92V
notes: as for B1
B5: CD98hc.04.064.4c (humanized, 2+1 format) (bispecific antibody)
scFv: B1 scFv with N35H, S59N, M70S, T76I, V79A, S85R, E89D, A92V
notes: as for B1
B6: CD98hc.04.064.4b (humanized, 2+1 format) (bispecific antibody)
scFv: B1 scFv with S59N, M70S, T76I, V79A, S85R, E89D, A92V, Y232F
notes: as for B1

Molecular target: T1, huCD98hc ECD Avi-His
Assay: SPR, Biacore T200, Protein A/G capture
Procedure: (§1) Binding kinetics of humanized anti-CD98hc antibodies were evaluated using the Biacore T200 (Cytiva). Briefly, IgGs were diluted to 10 μg/mL and captured using a Protein A/G (ThermoFisher, #21186) surface on a CM5 chip that was prepared by amine coupling according to the instrument manufacturer's recommendations. The captured antibodies were tested for their ability to bind human and cynomolgus monkey CD98hc as follows.
(§2) Each sample was injected for 2 minutes to allow association, followed by dissociation in buffer alone for 10 minutes. Each sample injection was followed by the regeneration of the chip with three 30-second injections of 10 mM glycine pH 1.7. Fresh antibody was captured at the beginning of each cycle.
(§3) Data were analyzed using Biacore evaluation software to generate kinetic constants. The equilibrium dissociation constants (KD) were calculated from the fitted association and dissociation rate constants (k-on and k-off) for each of the anti-CD98hc antibodies.

Kd [nM] | Binder
35 | B1
25 | B2
18 | B3

Molecular target: T2, Cyno CD98hc ECD Avi-His
Assay: SPR, Biacore T200, Protein A/G capture
Procedure: as §1, §2, §3

Kd [nM] | Binder
1500 | B1
740 | B2
340 | B3

Molecular target: T1, huCD98hc ECD Avi-His
Assay: SPR, Biacore T200, anti-kappa capture
Procedure: (§4) Binding kinetics of 2+1 anti-CD98hc bispecific antibodies to recombinant human and cynomolgus CD98hc ECD Avi-His were evaluated using a Biacore T200 instrument (Global Life Sciences Solutions USA LLC, Marlborough, MA). The 2+1 anti-CD98hc bispecific antibodies were prepared by diluting to 50 μg/mL in running buffer HBS-EP+ (Teknova) with 0.5 mg/mL BSA (MP Biomedicals) and captured by a goat anti-human kappa polyclonal antibody (Southern Biotech) surface that was prepared according to the instrument manufacturer's recommendations. Two independent experiments were performed as follows, resulting in an N of between one and […] determinations for each antibody. Estimates of affinity were generated by injecting each analyte over captured antibody on Flowcell 2, 3, or 4. CD98hc ECD Avi-His analytes were diluted with running buffer, in a series of five, three-fold serial dilutions starting from 600 nM. Analytes were injected without regeneration, from lowest to highest concentration, for 5 minutes each, and dissociation was followed for 15 minutes. After each analyte injection series, antibodies were regenerated with 10 mM glycine pH 2.0 buffer (Cytiva). Data were processed and analyzed using Biacore T200 BiaEvaluation software (Cytiva).
(§5) The equilibrium dissociation constants (KD) were calculated from the fitted association and dissociation rate constants (k-on and k-off) for 2+1 anti-CD98hc bispecific antibodies of the present disclosure binding to human and cynomolgus CD98hc ECD Avi-His. For measurements with N>1, means and standard deviation were calculated and measurements for all samples were combined and graphed using GraphPad Prism.

Kd [nM] | Binder
24 | B1
34 | B4
13 | B2
17 | B5
30 | B6
12 | B3

Molecular target: T2, Cyno CD98hc ECD Avi-His
Assay: SPR, Biacore T200, anti-kappa capture
Procedure: as §4, §5

Kd [nM] | Binder
360 | B1
430 | B4
120 | B2
310 | B5
620 | B6
160 | B3
